Measurements reported in publication doi:10.1101/2023.11.28.569006.

Key:
[1] = molecular target: artificial chaperone ADGroEL_SacSm (complete heptameric ring) (not stated | Sulfolobus acidocaldarius); experiment: pull-down
[2] = molecular target: hetero-oligomers with three or more ADGroEL_SacSm in their composition; experiment: pull-down

- stoichiometry N (αLA molecules per complete ring) [1]: 4
- stoichiometry N (αLA per ADGroEL) [2]: 0.5
B1: denatured alpha-Lactalbumin (αLA) (natural protein)
chain: EQLTKCEVFRELKDLKGYGGVSLPEWVCTTFHTSGYDTQAIVQNNDSTEYGLFQINNKIWCKDDQNPHSSNICNISCDKFLDDDLTDDIMCVKKILDKVGINYWLAHKALCSEKLDQWLCEKL
